One block for each binder: values may come before it. No end group written: not given here. *: point of attachment. MTSSL = spin label (R1), CC1(C)C=C(CS*)C(C)(C)N1[O]
Columns and labels:
[1] = target: T1, p15 fragment of Caspase-8-cleaved mouse Bid (tBid) (Mus musculus (Mouse), UniProt P70444); assay: SEC co-elution as 20 kDa complex, with SDS-PAGE and CD melting; no detergent; detergent (DDM/OG) dissociates the fragments, cardiolipin liposomes only partly
T1 chain: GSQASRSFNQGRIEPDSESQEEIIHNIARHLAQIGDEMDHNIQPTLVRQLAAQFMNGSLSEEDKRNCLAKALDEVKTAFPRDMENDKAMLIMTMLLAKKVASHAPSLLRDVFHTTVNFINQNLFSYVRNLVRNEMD

[2] = target: T2, p15 fragment of spin labeled cleaved mouse Bid (cBidR1), MTSSL on C126 (Mus musculus (Mouse), UniProt P70444, MTSSL spin label (R1) on C126); assay: DEER EPR (also cw EPR; Trp/Tyr fluorescence at 0.5 uM); no detergent; MTSSL on C30 and C126; 2% OG or 2% DDM dissociates (reversed by OG removal), cardiolipin liposomes only partly
T2 chain: T1 chain

- binding result [1]: binds
B1: p7 fragment of Caspase-8-cleaved mouse Bid (protein)
chain: MDSEVSNGSGLGAEHITDLLVFGFLQSSGCTRQELEVLGRELPVQAYWEADLEDELQTD

- binding result [2]: binds
B2: p7 fragment of spin labeled cleaved mouse Bid (cBidR1), MTSSL on C30 (protein)
chain: MDSEVSNGSGLGAEHITDLLVFGFLQSSGC(MTSSL)TRQELEVLGRELPVQAYWEADLEDELQTD
